# Laboratory results as given in US20070178572A1, “Protein crystal structure” (priority 2003, published 2007).
# Residue numbers refer to the chain shown, from its start. Read-outs that look alike come from different tables or passages of the source.
# B1: SET 7/9: human enzyme that specifically methylates lysine-4 of histone H3 (protein, UniProt Q8WTS6 1-366, looked up)
# Histone-lysine …: MDSDDEMVEEAVEGHLDDDGLPHGFCTVTYSSTDRFEGNFVHGEKNGRGKFFFFDGSTLEGYYVDDALQGQGVYTYEDGGVLQGTYVDGELNGPAQEYDTDGRLIFKGQYKDNIRHGVCWIYYPDGGSLVGEVNEDGEMTGEKIAYVYPDERTALYGKFIDGEMIEGKLATLMSTEEGRPHFELMPGNSVYHFDKSTSSCISTNALLPDPYESERVYVAESLISSAGEGLFSKVAVGPNTVMSFYNGVRITHQEVDSRDWALNGNTLSLDEETVIDVPEPYNHVSKYCASLGHKANHSFTPNCIYDMFVHPRFGPIKCIRTLRAVEADEELTVAYGYDHSPPGKSGPEAPEWYQVELKAFQATQQK
# B2: Y245>A: SET 7/9 histone methyltransferase with point mutation of Tyr-245 to alanine (protein, UniProt Q8WTS6 1-366, looked up, variant Y245A)
# Histone-lysine …: B1 Histone-lysine … with Y245A
# What was measured:
# [1] = test system: H3 20mer peptide; experiment: Analytical analysis of histone methylation (HPLC separation and MALDI of reaction products); type: biochemical, human; conditions: unmodified peptide and AdoMet, reaction driven essentially to completion
# Protocol: The histone methyltransferase assay for analytical purposes was carried out under slightly different conditions than those described in Example 1.2. For analytical purposes the reaction was performed at 37° C. in 50 mM Tris-HCl, pH 8.0, 100 mM NaCl, 1 mM DTT, with 300 μM AdoMet (Fluka, Switzerland), 100 μM H3 20mer peptide ([…]), and with 1.5 μM enzyme. At desired time intervals an aliquot of the reaction was removed and quenched in 8 M urea and acidified with glacial acetic acid. The reaction products were separated by reverse phase HPLC (Jasco (UK) Ltd) on a Zorbax 300SB-C18 column (Rockland Technologies, Inc. USA) using a gradient from 0 to 40% acetonitrile in the presence of 0.05% trifluoroacetic acid at 55° C. Fractions from the peptide peak were analysed using a Reflex III MALDI time-of-flight mass spectrometer (Bruker Daltonik, GmbH, Germany) to obtain positive ion mass spectra.
# The present inventors have further analysed the methylation reaction. Reaction mixtures were set up with unmodified peptide and AdoMet and conditions found where the reaction was driven essentially to completion. […] The reason for SET 7/9 acting as a mono-methyltransferase is readily apparent from the crystal structure now presented. The peptide used for crystallization was synthesised using mono-methylated lysine at position 4. […]
# [2] = test system: histone H3 peptide; experiment: HMTase activity measurements (histone methyltransferase assay, [methyl-3H] AdoMet, scintillation counting); type: biochemical, human
# Protocol: The methyltransferase activity of SET7/9 and the various mutant constructs described in the text were determined in a reaction volume of 20 μl containing 3 μM AdoMet supplemented with [methyl-^3H] AdoMet (4 μCi) (Amersham Biosciences, UK) and […] purified methylase in reaction buffer (50 mM Tris pH 8.5, 100 mm NaCl, 1 mM EDTA, 1 mM DTT) with 50 μM histone peptide (see below). Following incubation at 37° C. for 60 min the reaction was vacuum blotted onto membrane (Hybond-C, Amersham Biosciences, UK) washed and activity measured by scintillation counting.
# [3] = test system: histone H3 peptide; conditions: previously reported (Wilson et al, 2002); cited from earlier work
Molecule,methylation state of reaction product [1],HMTase activity ([2]; mono-methylated Lys-4 substrate),HMTase activity ([2]; unmodified lysine substrate),HMTase activity [3]
B1,only mono-methylated peptide,,,
B2,,substantial activity,greatly reduced activity,dramatic reduction in HMTase activity
